Paper PMC4357707 (Nucleic Acids Research, 2015)
Where a chain is given by its changes, count along the chain named.

Experiments:
HEN1-RHK389,397,477AAA = target: T1, HEN1-RHK389,397,477AAA (Arabidopsis thaliana, UniProt Q9C5Q8 1-942, R389A;H397A;K477A); experiment: EMSA
T1 sequence: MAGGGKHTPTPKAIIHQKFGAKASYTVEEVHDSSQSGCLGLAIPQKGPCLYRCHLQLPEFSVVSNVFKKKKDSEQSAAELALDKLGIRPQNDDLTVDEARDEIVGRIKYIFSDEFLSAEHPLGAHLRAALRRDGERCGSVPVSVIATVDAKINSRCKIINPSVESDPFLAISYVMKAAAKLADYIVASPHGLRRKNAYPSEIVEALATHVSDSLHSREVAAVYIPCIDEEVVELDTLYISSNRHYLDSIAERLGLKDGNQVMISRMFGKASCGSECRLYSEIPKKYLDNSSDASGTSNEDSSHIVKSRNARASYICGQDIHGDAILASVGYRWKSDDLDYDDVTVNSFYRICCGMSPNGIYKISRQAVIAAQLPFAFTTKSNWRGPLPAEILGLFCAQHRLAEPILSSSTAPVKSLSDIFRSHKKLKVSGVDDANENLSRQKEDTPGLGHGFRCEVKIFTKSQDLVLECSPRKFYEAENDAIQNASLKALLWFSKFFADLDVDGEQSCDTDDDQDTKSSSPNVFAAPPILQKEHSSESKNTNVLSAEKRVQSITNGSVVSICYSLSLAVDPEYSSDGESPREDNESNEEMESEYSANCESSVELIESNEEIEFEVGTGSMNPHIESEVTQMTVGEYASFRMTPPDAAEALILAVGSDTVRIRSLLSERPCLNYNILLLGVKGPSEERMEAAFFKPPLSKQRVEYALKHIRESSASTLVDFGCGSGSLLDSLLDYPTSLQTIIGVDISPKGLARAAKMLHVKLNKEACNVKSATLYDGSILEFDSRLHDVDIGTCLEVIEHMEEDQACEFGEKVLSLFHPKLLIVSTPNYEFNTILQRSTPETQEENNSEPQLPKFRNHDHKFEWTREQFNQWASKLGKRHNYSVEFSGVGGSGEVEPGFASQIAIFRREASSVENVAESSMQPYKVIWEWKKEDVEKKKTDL

HEN1-KKKK68-71SAAS = target: T2, HEN1-KKKK68-71SAAS (Arabidopsis thaliana, UniProt Q9C5Q8 1-942, K68S;K69A;K70A;K71S); experiment: EMSA
T2 sequence: T1 sequence with K68S, K69A, K70A, K71S, A389R, A397H, A477K

B1: miR173/miR173* (dsRNA)
RNA 1: UUCGCUUGCAGAGAGAAAUCAC
RNA 2: GAUUCUCUGUGUAAGCGAAAG
For B1, which Kd (HEN1-RHK389,397,477AAA) is on record?
Its Kd is 65 ± 12 nM.

Does B1 bind (HEN1-KKKK68-71SAAS)?
Result: no binding
